By kon is commonly meant the second-order rate constant of association.

This is an account of results in PMC8688422.

In one assay the target is galectin-1 (UniProt P09382). As to the kind of experiment: SPR; BIAcore 1000, galectin-1 amine-coupled to CM5 chip, analyte injected at different concentrations, 25 °C, HBS-EP (10 mM HEPES, 150 mM NaCl, 3 mM EDTA, 0.005% P20) pH 7.4; single association, biphasic dissociation. A general note: In SPR one partner is held on a chip, and binding of the other changes the refractive index at the surface.

Another assay concerns the target galectin-1 C3S (UniProt P09382).

Take platelet factor 4 (PF4/CXCL4) (ligand): in the assay with galectin-1, the K1 (kd1/ka) is 9 µM, the K2 (kd2/ka) came out at 483 nM, the kd1 (first phase of the biphasic dissociation) came to 0.092 s⁻¹ and the kd2 (second phase of the biphasic dissociation) came out at 0.005 s⁻¹. In the assay with galectin-1, this substance showed a kon of 10200 M⁻¹ s⁻¹ and a stoichiometry N (CXCL4 per galectin-1) of 2. For the same substance, in the assay with galectin-1 C3S, the fluorescence anisotropy: binding affinity of galectin-1 C3S for the fluorescein-tagged tdga-probe with 8 µM CXCL4 against galectin-1 alone was determined as 10 fold and the fluorescence anisotropy: inhibitory potency of asialofetuin (ASF) on the galectin-1 C3S/tdga-probe interaction with 8 µM CXCL4 against without was greater than 600 fold.
